Key:
[1] = tested on: PDCD-1 megaTAL thermostable variant (Artificial Sequence); experiment: cell_activity; settings: nearly 80%; primary human T cells, mRNA electroporation, TIDE
[2] = tested on: PDCD-1 megaTAL parent (Artificial Sequence); experiment: cell_activity; settings: primary human T cells, mRNA electroporation, TIDE

## PDCD-1 target site
[1]
  activity: 80 % editing
[2]
  activity: < 20 % editing
